# Measurements published in publication PMC10115800, “Two assembly modes for SIN3 histone deacetylase complexes” (Cell Discovery, 2023).
# T1: Pst3 with C-terminal 3× Flag-tag (S. pombe, UniProt O74755 1-1154)
# T1 construct: Pst3, Sin3 homolog of S. pombe, subunit of the SIN3L complex; PAH3, HID and HCR are resolved in the model; Endogenous protein; also called Pst3-Flag; Sin3 isoform Pst3; source: endogenous locus tagged, S. pombe; purified (ANTI-FLAG M2 resin, glycerol gradient); not shown: 3× Flag, C-terminal, kept
# T1 sequence (looked up): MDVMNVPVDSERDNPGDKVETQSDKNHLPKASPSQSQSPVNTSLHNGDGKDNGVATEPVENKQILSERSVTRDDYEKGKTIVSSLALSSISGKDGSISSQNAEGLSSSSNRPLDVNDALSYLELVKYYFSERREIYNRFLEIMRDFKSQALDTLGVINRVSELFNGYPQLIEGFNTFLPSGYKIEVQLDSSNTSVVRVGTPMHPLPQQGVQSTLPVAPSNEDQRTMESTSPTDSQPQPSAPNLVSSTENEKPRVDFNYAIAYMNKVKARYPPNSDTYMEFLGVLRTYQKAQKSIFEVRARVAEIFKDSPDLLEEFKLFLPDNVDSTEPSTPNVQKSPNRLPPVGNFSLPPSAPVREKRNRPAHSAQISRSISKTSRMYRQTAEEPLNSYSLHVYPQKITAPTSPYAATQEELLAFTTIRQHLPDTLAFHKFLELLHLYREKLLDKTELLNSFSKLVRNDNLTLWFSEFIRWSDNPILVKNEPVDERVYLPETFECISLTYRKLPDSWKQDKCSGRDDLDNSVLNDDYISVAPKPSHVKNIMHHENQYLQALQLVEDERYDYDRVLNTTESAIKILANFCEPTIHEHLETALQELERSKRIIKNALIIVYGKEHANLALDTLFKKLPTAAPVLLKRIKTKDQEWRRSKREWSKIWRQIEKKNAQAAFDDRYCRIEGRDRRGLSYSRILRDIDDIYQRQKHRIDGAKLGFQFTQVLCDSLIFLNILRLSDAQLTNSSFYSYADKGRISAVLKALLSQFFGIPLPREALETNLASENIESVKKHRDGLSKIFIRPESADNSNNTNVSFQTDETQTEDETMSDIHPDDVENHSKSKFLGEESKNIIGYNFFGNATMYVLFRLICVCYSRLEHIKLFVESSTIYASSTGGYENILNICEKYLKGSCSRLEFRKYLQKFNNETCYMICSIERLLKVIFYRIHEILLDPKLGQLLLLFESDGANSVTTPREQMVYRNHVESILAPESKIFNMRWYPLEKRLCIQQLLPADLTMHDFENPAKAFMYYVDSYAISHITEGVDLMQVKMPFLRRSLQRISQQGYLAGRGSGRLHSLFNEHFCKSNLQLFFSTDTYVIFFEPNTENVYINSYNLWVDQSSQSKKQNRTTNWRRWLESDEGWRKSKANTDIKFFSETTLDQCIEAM
# T2: Pst2 with C-terminal 3× Flag-tag (S. pombe, UniProt O13919 1-1075)
# T2 construct: Pst2, Sin3 homolog of S. pombe, organising subunit of the SIN3S complex; all five domains (PAH1/2/3, HID, HCR) are resolved; also called Pst2-Flag; Sin3 isoform Pst2; source: endogenous locus tagged, S. pombe; purified (ANTI-FLAG M2 resin, glycerol gradient); not shown: 3× Flag, C-terminal, kept
# T2 sequence (looked up): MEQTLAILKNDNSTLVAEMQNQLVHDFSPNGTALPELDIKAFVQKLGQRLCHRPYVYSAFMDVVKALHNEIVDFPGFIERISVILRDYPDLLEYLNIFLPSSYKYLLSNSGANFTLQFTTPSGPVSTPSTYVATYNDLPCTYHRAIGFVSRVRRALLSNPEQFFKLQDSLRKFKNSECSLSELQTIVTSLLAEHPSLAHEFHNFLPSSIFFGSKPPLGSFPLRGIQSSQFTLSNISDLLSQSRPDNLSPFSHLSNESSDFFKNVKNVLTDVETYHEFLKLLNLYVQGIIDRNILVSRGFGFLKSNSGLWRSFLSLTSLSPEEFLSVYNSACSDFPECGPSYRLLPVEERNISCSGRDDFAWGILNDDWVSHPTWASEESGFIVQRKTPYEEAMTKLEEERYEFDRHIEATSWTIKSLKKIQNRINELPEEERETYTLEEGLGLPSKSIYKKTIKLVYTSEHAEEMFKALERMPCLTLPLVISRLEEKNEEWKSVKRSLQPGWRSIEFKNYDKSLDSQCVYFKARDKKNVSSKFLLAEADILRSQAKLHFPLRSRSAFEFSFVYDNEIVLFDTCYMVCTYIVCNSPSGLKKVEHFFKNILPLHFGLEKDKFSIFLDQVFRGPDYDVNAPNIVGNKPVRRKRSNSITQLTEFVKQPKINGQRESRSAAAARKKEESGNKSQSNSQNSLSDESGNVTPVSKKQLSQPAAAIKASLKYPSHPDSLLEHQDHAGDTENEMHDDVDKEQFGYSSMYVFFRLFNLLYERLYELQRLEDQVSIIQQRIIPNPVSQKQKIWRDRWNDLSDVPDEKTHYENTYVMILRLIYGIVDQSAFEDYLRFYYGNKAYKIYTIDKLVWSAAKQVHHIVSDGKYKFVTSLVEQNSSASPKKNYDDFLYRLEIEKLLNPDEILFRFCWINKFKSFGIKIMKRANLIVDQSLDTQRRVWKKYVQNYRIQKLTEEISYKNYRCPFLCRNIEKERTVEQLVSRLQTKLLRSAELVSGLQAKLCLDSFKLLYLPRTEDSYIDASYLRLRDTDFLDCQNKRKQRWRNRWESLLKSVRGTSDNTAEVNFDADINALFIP
# B1: histone deacetylase Clr6 (enzyme, S. pombe, UniProt O59702 1-405, looked up)
# chain: MGFGKKKVSYFYDEDVGNYHYGPQHPMKPHRVRMVHNLVVNYNLYEKLNVITPVRATRNDMTRCHTDEYIEFLWRVTPDTMEKFQPHQLKFNVGDDCPVFDGLYEFCSISAGGSIGAAQELNSGNAEIAINWAGGLHHAKKREASGFCYVNDIALAALELLKYHQRVLYIDIDVHHGDGVEEFFYTTDRVMTCSFHKFGEYFPGTGHIKDTGIGTGKNYAVNVPLRDGIDDESYESVFKPVISHIMQWFRPEAVILQCGTDSLAGDRLGCFNLSMKGHSMCVDFVKSFNLPMICVGGGGYTVRNVARVWTYETGLLAGEELDENLPYNDYLQYYGPDYKLNVLSNNMENHNTRQYLDSITSEIIENLRNLSFAPSVQMHKTPGDFTFENAEKQNIAKEEIMDERV
# notes: Clr6, zinc-dependent class I histone deacetylase of S. pombe; two copies in SIN3L (Clr6, Clr6’), one in SIN3S; Endogenous protein; source: endogenous, S. pombe; co-purified with Pst3-3×Flag or Pst2-3×Flag (ANTI-FLAG M2 resin, glycerol gradient)
# B2: Rxt3 (natural protein, S. pombe, UniProt O94707 1-351, looked up)
# chain: MEEKTPENEQSKKTFDPKDSMKIEETSTNGSSQPSQPSNIKLSIGSILESSNDNGDPEYSENGMGNMNMNTLPMATSTPMSYTKQPSEAKYPNSVWERKGVSDQEENTSSVKRQKTLPTQSSGEEEAKYSHPGAPTATSADSISMESRPSNLSTSLSKTTSYPQFQVRQFVSPIISIDNSALEPFLNRYPASESLFPVTEYEYTPWLEFPLLYSSIGKFVRVTIDIKWLNAAINPRLCRREIWGTDVYTDDSDIATILAHCGCFSLLKPVRKIAVVDLYILPPLVHYKGTRKNQIESRSWSSRQDGISLKIKEVTWKPACASIFENSIHTLTLEERLQARLELSRSSTFKI
# notes: Rxt3 of S. pombe, subunit of the Pst3 Lobe of the SIN3L complex; Endogenous protein; source: endogenous, S. pombe; co-purified with Pst3-3×Flag (ANTI-FLAG M2 resin, glycerol gradient)
# B3: WD40 domain-containing protein Prw1 (natural protein, S. pombe, UniProt O14021 1-431, looked up)
# chain: MAVSAVPHPSKQAQASEEGINQEKCINEEYKIWKKNSPFLYDLIITRALEWPCMSLQWYPEQQIFAEHGYTEQKMFLGVRADVGKYLLAVASIQLPYLNQTVPPTTMEGASAGDESSLRVNISNLYSHPESVCSAKLMPQDDSCVATVGNYHNDVLVFDKESFESYSSASESPLKPKYRLTKHTQPCTSVCWNFLSKGTLVSGSQDATLSCWDLNAYNESDSASVLKVHISSHEKQVSDVRFHYKHQDLLASVSYDQYLHVHDIRRPDASTKPARSVHAHSGPIHSVAFNPHNDFILATCSTDKTIALWDLRNLNQRLHTLEGHEDIVTKISFSPHEEPILASTSADRRTLVWDLSRIGEDQPAEEAQDGPPELLFMHGGHTSCTIDMDWCPNYNWTMATAAEDNILQIWTPSRSIWGNEQLEEDATAYLS
# notes: Prw1 of S. pombe, homolog of S. cerevisiae Ume1 and human RBBP4/7; N-terminal NEE box and C-terminal WD40 domain; two copies in SIN3L (Prw1, Prw1’), one in SIN3S; Endogenous protein; source: endogenous, S. pombe; co-purified with Pst3-3×Flag or Pst2-3×Flag (ANTI-FLAG M2 resin, glycerol gradient)
# Tests used:
# Conditions in all cases: both partners purified
# Pst1 = target: T3, Pst1 (S. pombe, UniProt Q09750 1-1522); assay: cryo-EM structure; endogenous SIN3L complex purified from the Pst3-3×Flag S. pombe strain, cross-linked with 1 mM BS3; 20 mM HEPES pH 7.4, 50 mM NaCl, 2 mM DTT; 3.2 Å
# T3 construct: Pst1, Sin3 homolog of S. pombe, endogenous subunit of the SIN3L complex; PAH3, HID and HCR are resolved in the model; Endogenous protein, untagged in the Pst3-Flag strain; only part of it is modelled in PDB 8I03; also called Sin3 isoform Pst1; Sin3 homolog Pst1; source: endogenous, S. pombe; co-purified with Pst3-3×Flag (ANTI-FLAG M2 resin, glycerol gradient)
# [1] = target: T1, Pst3 with C-terminal 3× Flag-tag; assay: as above
# [2] = target: T2, Pst2 with C-terminal 3× Flag-tag; assay: cryo-EM structure; endogenous SIN3S complex purified from the Pst2-3×Flag S. pombe strain, cross-linked with 1 mM BS3; 20 mM HEPES pH 7.4, 50 mM NaCl, 2 mM DTT; 2.9 Å
# [3] = target: B3; assay: cryo-EM structure; endogenous SIN3L complex purified from the Pst3-3×Flag S. pombe strain, cross-linked with 1 mM BS3; 20 mM HEPES pH 7.4, 50 mM NaCl, 2 mM DTT; 3.2 Å
# T3 sequence (Q09750 whole entry, canonical isoform): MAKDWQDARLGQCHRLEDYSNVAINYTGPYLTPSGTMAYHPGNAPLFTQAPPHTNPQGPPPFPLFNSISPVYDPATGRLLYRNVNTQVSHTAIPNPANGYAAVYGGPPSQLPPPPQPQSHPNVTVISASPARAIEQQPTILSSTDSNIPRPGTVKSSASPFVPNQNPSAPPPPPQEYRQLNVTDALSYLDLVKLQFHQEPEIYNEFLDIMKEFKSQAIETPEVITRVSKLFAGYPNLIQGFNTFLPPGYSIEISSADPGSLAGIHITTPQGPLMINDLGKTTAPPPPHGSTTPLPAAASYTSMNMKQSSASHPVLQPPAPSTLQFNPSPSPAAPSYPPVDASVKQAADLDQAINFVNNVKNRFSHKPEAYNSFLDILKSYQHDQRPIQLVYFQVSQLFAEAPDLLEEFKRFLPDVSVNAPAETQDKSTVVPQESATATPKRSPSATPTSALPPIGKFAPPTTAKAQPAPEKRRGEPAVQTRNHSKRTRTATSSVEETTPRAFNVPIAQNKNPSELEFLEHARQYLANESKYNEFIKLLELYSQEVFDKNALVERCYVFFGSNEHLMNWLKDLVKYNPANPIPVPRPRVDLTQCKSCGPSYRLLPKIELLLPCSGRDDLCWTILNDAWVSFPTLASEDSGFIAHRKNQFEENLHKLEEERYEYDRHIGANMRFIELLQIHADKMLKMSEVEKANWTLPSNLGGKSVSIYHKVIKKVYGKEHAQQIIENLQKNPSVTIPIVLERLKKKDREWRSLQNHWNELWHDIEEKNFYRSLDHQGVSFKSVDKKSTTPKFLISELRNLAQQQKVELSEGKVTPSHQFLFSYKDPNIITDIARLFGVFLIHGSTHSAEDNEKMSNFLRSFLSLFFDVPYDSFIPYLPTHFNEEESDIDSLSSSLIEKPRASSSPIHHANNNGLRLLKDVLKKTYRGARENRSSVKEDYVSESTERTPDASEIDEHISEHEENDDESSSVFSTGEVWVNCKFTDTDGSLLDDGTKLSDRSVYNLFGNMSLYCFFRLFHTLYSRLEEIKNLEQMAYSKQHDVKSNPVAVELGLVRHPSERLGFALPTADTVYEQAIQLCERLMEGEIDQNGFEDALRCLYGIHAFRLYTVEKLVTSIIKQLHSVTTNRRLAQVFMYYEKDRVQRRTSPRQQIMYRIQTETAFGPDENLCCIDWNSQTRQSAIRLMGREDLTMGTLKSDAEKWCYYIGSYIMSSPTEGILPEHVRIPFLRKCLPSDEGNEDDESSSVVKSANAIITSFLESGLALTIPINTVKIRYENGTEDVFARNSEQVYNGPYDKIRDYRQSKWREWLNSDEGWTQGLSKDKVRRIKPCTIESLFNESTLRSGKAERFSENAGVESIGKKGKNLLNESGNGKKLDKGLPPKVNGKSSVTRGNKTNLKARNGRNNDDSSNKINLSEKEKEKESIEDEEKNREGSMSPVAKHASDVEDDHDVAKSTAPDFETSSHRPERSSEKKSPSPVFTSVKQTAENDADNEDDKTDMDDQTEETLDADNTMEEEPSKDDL
Binder,binding result (Pst1),binding result [1],binding result [2],binding result [3]
B1,binds,binds,binds,–
B2,–,binds,–,binds
B3,binds,binds,binds,–
